One data set deals with T1, CHI active site (Medicago sativa, UniProt P28012).
T1 construct: histidine tag (pHIS8 vector) (N, cleaved yes); made in house; host or cells: E. coli BL21(DE3)
T1 sequence (P28012 1-222): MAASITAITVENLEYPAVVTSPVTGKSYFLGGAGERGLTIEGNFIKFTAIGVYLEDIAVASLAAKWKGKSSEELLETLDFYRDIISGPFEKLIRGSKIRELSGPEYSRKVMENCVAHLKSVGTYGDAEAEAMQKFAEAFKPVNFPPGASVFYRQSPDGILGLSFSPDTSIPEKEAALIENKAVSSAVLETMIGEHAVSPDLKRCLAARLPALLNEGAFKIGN
Briefly: Co-crystallization of CHI with (2S/2R)-naringenin, X-ray structure. In kind it is binding, Medicago sativa (alfalfa). The settings on record: commercial mixture of (2S)- and (2R)-naringenin used for co-crystallization. As for the experimental part:
Crystals of CHI (SEQ ID NO:1) were grown at 4° C. by vapor diffusion using the hanging drop method. A 2 μl drop containing a 1:1 mixture of 25 mg ml^−1 CHI and crystallization buffer (25% glycerol, 1.8-2.0 M ammonium sulfate and 0.05 M PIPES, pH 6.5) yielded diffraction quality crystals within a few days at 4° C. Crystals grew in space group P6522 with unit cell dimensions of a=90.37 Å; c=352.86 Å with two molecules per asymmetric unit and a solvent content of 72%. Native CHI diffraction data (105 K) were collected at beamline 7-1 of the Stanford Synchrotron Radiation Source (SSRL 7-1) on a 30 cm MAR imaging plate system. For generation of heavy atom derivatives, CHI crystals were soaked in mother liquor with either 1.2 mM K2OsCl6 or 1 mM HgCl2 for 12-16 hours. Heavy atom data (105 K) were collected at SSRL 9-1 on a 30 cm MAR imaging plate system. All images were indexed and integrated using DENZO and the reflections merged with SCALEPACK (Otwinowski, Z. & Minor, W., Methods Enzymol. 276:307-326, 1997). Data reduction was completed using programs from CCP4 (Collaborative Computational Project 4 (CCP4) Acta Crystallogr. D53:240-255, 1994) (See Table 3). […]

The subject of data set [1] is chalcone isomerase (CHI). The experiment in a line: CHI enzyme assay, steady-state kinetics of 6′-deoxychalcone cyclization. In kind it is biochemical, Medicago sativa (alfalfa). As to conditions: for kcat: cyclization of 6′-deoxychalcone, pH 7.5, substrate 2-50 μM; for kcat / Km: 25° C.; for Km: substrate 6′-deoxychalcone, pH 7.5. As for the experimental part:
CHI assays were performed at 25° C. in a 0.5 ml reaction volume containing 0.05 M Hepes (pH 7.5), 50 μM 6′-deoxychalcone, and 3% ethanol as co-solvent. Time-dependent decreases in 6′-deoxychalcone absorbance (λmax=390 nm; ε=29,400 M^−1 cm^−1) were monitored with a Beckman DU-640 spectrophotometer. Determination of steady-state kinetic constants used the standard assay system with varied concentrations of substrate (2-50 μM) following fitting to the Michaelis-Menton equation using KALEIDAGRAPH (Abelbeck Software).

In data set [2] the target is T2, alfalfa chalcone synthase 2 (Medicago sativa, UniProt P30074).
T2 sequence (P30074 1-389): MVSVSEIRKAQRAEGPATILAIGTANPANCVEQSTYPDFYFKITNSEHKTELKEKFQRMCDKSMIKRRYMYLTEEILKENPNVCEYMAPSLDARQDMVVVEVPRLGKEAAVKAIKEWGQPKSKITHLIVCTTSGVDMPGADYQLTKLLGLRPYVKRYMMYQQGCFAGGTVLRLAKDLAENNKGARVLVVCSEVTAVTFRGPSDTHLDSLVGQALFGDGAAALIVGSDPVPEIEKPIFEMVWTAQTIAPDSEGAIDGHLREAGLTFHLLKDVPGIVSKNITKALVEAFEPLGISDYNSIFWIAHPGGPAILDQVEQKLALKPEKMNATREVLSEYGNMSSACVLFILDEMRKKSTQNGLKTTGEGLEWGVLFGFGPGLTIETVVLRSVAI
Briefly: Gel filtration and analytical ultracentrifugation for protein association in vitro. It is filed as binding.

Data set [3] concerns chalcone isomerase (CHI). The settings on record: cyclization of chalcone; cited from earlier work.

Regarding `O=C1C[C@@H](c2ccc(O)cc2)Oc2cc(O)cc(O)c21` [(2S)-naringenin, 5,7,4′-trihydroxyflavanone], the “binding to CHI active site in co-crystal” value on CHI active site was “bound the CHI active site”.

B1: CHI wild-type: chalcone isomerase from Medicago sativa (alfalfa), SEQ ID NO:1, expressed in E. coli (protein, listed as Medicago sativa)
chain: MAASITAITVENLEYPAVVTSPVTGKSYFLGGAGEXGXTIEGNFIKFXAIGVYLEDIAVASLAAKWKGKSSEELLETLDFYRDIISGPFEKLIRGSKIRELSGPEXSRXXMEXCVAHLKSVGTYGDAEAEAMQKFAEAFKPVNFPPGASVFYRQSPDGILGLSFSPDTSIPEKEAALIENKAVSSAVLEXXIGEHAVSPDLKRCLAARLPALLNEGAFKIGN
modifications: MOD_RES (36) Arg, Met, Lys, Ala, His or Gln
Take B1: in the data set on chalcone isomerase (CHI) [1], the kcat came out at 4384 ± 517 min⁻¹ and the Km stood at 25.7 µM. For the same molecule, the kcat in the data set with chalcone isomerase (CHI) [1] (listed as wild-type CHI) was 4384 min⁻¹. In addition, the “association of alfalfa CHI and alfalfa chalcone synthase 2” value in data set [2] is given as “failed to detect association”. Moreover, in the data set on chalcone isomerase (CHI) [3], the “enzyme-catalyzed rate over spontaneous conversion rate” value is given as 10^7 fold.

B2: CHI Y106F: alfalfa chalcone isomerase mutant, Tyr 106 substituted by phenylalanine (protein, UniProt P28012 1-222, looked up, variant Y106F)
Chalcone--flavanone isomerase …: MAASITAITVENLEYPAVVTSPVTGKSYFLGGAGERGLTIEGNFIKFTAIGVYLEDIAVASLAAKWKGKSSEELLETLDFYRDIISGPFEKLIRGSKIRELSGPEFSRKVMENCVAHLKSVGTYGDAEAEAMQKFAEAFKPVNFPPGASVFYRQSPDGILGLSFSPDTSIPEKEAALIENKAVSSAVLETMIGEHAVSPDLKRCLAARLPALLNEGAFKIGN
As to B2, the “reduction in reaction rate” value with chalcone isomerase (CHI) [1] (Y106F mutant versus wild-type CHI, 6′-deoxychalcone) is 100 fold. In addition, in the data set with chalcone isomerase (CHI) [1], the kcat was found to be 69.0 ± 5.1 min⁻¹ and the Km was 29.1 µM. Besides, the kcat in the data set with chalcone isomerase (CHI) [1] (listed as CHI Y106F mutant) is 69.0 min⁻¹.

These data come from US7792645B2, “Three-dimensional structure of chalcone isomerase and methods of use thereof” (The Salk Institute for Biological Studies, priority 2000, dated 2010).
